Experimental data reported in patent US20250262210A1 (TRUSTEES OF COLUMBIA UNIVERSITY IN THE CITY OF NEW YORK, published 2025).

How the values were obtained:
Experiment in all cases: IP/MS, LZTR1 wild type-FLAG, U87
IFT172 = IFT172 (human, UniProt Q9UG01 1-1749, limits assumed)
Outline: (§1)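 Read-out: spectral counts from LC-MS/MS (Orbitrap Fusion) after MaxQuant identification. Variable modifications were Met oxidation, protein N-terminal acetylation and N/Q deamidation.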

ARHGEF40 = ARHGEF40 (human, UniProt Q8TER5 1-1519, limits assumed)
ARHGEF40, sequence (Q8TER5 whole entry): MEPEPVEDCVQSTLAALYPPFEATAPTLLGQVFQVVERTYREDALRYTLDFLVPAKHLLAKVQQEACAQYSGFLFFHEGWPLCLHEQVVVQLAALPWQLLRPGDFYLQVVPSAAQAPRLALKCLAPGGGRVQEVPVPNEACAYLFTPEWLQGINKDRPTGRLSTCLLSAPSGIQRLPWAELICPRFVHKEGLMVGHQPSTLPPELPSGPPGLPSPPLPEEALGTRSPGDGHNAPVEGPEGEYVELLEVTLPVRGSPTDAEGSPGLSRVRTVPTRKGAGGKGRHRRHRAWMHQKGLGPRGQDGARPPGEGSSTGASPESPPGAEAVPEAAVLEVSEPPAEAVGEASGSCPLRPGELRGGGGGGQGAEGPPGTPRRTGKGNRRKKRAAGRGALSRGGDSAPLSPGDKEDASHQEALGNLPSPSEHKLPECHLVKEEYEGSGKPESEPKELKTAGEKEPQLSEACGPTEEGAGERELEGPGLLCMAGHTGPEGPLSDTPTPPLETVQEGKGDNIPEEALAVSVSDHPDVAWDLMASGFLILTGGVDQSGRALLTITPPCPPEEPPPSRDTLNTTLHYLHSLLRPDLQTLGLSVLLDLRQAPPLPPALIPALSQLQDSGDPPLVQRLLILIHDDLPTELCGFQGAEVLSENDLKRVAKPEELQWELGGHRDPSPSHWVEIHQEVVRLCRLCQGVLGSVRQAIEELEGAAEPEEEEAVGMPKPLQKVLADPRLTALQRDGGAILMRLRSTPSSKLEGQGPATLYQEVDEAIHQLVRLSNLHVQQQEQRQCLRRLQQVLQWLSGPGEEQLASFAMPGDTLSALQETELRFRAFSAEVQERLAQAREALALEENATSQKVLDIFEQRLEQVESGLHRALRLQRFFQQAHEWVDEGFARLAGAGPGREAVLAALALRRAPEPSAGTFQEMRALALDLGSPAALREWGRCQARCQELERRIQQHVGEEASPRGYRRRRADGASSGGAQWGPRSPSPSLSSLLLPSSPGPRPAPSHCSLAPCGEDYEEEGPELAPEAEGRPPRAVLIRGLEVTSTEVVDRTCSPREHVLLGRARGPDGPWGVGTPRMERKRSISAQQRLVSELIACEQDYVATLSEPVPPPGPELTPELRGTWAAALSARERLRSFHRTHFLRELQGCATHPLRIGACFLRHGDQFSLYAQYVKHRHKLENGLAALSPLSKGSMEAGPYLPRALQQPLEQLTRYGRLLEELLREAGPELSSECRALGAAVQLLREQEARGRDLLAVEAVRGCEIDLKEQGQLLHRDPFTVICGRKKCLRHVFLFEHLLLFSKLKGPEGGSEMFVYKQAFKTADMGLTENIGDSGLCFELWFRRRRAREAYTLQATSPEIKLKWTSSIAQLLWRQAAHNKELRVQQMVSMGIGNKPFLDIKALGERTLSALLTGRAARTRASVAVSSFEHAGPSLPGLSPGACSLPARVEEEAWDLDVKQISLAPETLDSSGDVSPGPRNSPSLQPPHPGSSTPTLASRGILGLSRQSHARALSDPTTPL
Outline: as §1

RNF123 = biological target: T1, RNF123 (human, UniProt Q5XPI4 2-1314, limits assumed)
T1 sequence (looked up): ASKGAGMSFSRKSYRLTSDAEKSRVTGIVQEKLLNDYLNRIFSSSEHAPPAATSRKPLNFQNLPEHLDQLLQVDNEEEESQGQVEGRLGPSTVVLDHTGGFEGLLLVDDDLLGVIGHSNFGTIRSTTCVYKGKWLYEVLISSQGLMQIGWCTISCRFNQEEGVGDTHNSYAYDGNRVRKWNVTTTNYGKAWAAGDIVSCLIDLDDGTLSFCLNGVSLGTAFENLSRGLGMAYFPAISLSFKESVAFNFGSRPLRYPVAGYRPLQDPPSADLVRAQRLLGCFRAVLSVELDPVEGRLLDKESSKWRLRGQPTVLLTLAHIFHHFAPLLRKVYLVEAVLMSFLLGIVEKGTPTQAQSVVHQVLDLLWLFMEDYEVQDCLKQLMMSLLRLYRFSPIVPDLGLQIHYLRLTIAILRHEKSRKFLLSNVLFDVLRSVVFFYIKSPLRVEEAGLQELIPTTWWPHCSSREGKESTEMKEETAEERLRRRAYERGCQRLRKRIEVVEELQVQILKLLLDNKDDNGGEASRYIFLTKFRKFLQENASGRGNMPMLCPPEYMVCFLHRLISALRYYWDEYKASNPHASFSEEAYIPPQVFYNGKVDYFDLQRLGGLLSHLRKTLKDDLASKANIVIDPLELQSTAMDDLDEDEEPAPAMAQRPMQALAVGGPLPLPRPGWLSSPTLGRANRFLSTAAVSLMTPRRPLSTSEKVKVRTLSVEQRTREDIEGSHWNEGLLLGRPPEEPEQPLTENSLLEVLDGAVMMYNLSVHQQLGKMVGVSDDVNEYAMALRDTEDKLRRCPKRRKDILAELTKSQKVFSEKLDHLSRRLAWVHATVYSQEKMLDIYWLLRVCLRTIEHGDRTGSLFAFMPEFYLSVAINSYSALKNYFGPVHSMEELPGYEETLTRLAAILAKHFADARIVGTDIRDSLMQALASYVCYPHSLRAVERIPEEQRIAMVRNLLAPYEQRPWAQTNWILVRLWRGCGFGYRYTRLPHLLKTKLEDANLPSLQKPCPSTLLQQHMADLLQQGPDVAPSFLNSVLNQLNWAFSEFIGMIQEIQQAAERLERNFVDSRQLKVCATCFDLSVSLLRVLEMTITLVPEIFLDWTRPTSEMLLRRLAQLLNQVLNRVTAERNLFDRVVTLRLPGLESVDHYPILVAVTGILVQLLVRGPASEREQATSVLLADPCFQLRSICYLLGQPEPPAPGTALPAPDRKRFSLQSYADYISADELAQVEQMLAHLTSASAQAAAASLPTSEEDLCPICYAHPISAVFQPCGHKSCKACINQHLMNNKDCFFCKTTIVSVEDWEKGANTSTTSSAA
Outline: as §1

ARHGEF28 = ARHGEF28 (human, UniProt Q8N1W1 1-1705, limits assumed)
ARHGEF28, sequence (Q8N1W1 whole entry): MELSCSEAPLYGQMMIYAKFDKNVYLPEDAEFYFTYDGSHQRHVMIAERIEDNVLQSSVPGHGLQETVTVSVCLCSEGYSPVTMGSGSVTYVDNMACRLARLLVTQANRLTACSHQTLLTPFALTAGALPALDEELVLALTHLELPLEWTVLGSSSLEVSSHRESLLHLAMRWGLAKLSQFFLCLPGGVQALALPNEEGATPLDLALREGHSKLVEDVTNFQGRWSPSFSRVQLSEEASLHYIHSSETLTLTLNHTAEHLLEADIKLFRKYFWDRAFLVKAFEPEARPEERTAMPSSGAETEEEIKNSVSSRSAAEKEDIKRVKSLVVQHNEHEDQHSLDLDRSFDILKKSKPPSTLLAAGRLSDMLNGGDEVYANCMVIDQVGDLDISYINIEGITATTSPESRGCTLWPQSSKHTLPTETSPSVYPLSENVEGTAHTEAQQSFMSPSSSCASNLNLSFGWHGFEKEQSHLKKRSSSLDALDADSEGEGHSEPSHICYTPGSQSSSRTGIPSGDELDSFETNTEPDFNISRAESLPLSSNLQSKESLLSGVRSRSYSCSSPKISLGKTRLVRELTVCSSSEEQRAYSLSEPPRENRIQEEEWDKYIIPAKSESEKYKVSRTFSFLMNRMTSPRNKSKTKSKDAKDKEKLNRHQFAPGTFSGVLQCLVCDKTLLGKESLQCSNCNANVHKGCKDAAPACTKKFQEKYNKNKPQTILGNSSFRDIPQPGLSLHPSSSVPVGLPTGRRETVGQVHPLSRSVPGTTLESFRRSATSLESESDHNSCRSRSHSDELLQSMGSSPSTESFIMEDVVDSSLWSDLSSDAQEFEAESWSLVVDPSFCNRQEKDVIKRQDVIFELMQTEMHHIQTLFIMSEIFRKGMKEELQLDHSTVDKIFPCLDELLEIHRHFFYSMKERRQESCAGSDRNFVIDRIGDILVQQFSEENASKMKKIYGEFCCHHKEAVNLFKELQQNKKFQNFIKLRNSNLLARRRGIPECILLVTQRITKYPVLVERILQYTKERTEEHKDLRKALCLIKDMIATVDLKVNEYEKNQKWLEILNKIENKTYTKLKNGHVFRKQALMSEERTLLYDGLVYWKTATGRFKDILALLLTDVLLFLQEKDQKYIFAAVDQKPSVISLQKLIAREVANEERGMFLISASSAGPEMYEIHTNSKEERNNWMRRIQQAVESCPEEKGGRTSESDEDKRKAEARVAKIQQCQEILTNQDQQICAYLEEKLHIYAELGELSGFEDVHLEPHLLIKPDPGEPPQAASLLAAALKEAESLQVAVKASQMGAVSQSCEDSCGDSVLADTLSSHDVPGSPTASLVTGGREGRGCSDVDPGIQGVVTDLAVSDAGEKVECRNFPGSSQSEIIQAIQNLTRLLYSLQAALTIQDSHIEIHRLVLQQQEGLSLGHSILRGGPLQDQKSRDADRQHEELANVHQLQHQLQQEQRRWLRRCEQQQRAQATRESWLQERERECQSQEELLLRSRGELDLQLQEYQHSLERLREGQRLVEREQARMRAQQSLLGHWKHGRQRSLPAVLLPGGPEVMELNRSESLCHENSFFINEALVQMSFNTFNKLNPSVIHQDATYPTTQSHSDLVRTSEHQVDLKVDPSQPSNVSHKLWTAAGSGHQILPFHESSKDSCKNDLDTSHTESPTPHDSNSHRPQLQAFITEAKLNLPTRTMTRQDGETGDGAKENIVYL
Outline: as §1

Measured: binding result

IFT172, sequence (Q9UG01 whole entry, the tested form may be a part): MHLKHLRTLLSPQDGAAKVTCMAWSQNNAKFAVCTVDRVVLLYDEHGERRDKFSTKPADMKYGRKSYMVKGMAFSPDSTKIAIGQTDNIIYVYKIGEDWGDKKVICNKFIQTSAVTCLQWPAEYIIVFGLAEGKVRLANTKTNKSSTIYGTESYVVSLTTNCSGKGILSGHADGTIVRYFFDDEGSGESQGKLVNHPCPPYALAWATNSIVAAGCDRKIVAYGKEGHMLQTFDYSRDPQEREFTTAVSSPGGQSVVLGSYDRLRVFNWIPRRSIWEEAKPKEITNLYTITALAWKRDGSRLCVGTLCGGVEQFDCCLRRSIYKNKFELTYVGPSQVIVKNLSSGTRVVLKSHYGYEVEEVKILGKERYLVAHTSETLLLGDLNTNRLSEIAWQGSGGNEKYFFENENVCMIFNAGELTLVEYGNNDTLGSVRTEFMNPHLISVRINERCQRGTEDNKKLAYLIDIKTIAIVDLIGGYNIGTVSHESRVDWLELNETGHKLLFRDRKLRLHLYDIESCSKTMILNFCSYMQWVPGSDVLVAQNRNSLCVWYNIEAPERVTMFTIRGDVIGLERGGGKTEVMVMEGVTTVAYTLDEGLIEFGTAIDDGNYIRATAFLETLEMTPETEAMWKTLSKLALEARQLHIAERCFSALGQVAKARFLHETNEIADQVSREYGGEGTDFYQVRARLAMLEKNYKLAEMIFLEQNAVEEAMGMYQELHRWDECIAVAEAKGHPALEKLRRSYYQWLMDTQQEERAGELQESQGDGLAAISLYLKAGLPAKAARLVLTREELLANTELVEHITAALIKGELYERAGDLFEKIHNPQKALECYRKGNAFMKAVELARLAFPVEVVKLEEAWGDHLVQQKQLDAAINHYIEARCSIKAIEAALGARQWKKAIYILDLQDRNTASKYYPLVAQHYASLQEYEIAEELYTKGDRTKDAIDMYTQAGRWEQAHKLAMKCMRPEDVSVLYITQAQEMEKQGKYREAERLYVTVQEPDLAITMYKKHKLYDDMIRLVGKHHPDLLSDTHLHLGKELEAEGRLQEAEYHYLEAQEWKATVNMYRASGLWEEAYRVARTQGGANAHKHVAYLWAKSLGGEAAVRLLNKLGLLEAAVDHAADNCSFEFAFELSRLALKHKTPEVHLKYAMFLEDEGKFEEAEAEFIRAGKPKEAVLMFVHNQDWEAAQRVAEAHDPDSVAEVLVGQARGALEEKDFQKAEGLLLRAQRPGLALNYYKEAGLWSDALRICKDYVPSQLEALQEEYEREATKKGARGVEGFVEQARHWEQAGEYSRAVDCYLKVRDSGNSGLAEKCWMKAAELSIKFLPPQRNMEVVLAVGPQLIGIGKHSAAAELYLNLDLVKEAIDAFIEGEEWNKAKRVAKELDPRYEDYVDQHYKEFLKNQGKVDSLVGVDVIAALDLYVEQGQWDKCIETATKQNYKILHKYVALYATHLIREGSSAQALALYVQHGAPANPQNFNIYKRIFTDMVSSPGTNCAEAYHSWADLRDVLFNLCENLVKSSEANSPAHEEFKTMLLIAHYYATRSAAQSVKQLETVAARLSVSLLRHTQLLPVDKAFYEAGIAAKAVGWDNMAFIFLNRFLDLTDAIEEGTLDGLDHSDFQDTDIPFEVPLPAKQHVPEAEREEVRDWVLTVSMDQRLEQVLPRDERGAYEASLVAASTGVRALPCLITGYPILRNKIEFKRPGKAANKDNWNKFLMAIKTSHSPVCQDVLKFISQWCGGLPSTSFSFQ

B1: LZTR1-FLAG (other, human, UniProt Q8N653 1-840, looked up)
chain: MAGPGSTGGQIGAAALAGGARSKVAPSVDFDHSCSDSVEYLTLNFGPFETVHRWRRLPPCDEFVGARRSKHTVVAYKDAIYVFGGDNGKTMLNDLLRFDVKDCSWCRAFTTGTPPAPRYHHSAVVYGSSMFVFGGYTGDIYSNSNLKNKNDLFEYKFATGQWTEWKIEGRLPVARSAHGATVYSDKLWIFAGYDGNARLNDMWTIGLQDRELTCWEEVAQSGEIPPSCCNFPVAVCRDKMFVFSGQSGAKITNNLFQFEFKDKTWTRIPTEHLLRGSPPPPQRRYGHTMVAFDRHLYVFGGAADNTLPNELHCYDVDFQTWEVVQPSSDSEVGGAEVPERACASEEVPTLTYEERVGFKKSRDVFGLDFGTTSAKQPTQPASELPSGRLFHAAAVISDAMYIFGGTVDNNIRSGEMYRFQFSCYPKCTLHEDYGRLWESRQFCDVEFVLGEKEECVQGHVAIVTARSRWLRRKITQARERLAQKLEQEAAPVPREAPGVAAGGARPPLLHVAIREAEARPFEVLMQFLYTDKIKYPRKGHVEDVLLIMDVYKLALSFQLCRLEQLCRQYIEASVDLQNVLVVCESAARLQLSQLKEHCLNFVVKESHFNQVIMMKEFERLSSPLIVEIVRRKQQPPPRTPLDQPVDIGTSLIQDMKAYLEGAGAEFCDITLLLDGHPRPAHKAILAARSSYFEAMFRSFMPEDGQVNISIGEMVPSRQAFESMLRYIYYGEVNMPPEDSLYLFAAPYYYGFYNNRLQAYCKQNLEMNVTVQNVLQILEAADKTQALDMKRHCLHIIVHQFTKVSKLPTLRSLSQQLLLDIIDSLASHISDKQCAELGADI
notes: Expressed in HEK 293T, HeLa or U87 cells; used as cell lysate; also called LZTR1 wild type-FLAG; LZTR1 WT; not shown: FLAG tag at the C-terminus
binds: IFT172 | ARHGEF40 | RNF123 | ARHGEF28
